Test results reported in article PMC10638095, “Visualization of conformational transition of GRP94 in solution” (Life Science Alliance, 2023).

Biological target: the molecule itself
Assay: SEC-SAXS; inline SEC-SAXS; 25 mM HEPES pH 8.0, 200 mM NaCl, 1 mM TCEP, with or without 1 mM ADP or AMPPNP; 25°C; 10 mg/ml protein, 100 μl injected; scattering fitted with dimer models (EOM, OLIGOMER)

B1: mouse GRP94 (22-754) (natural protein, UniProt P08113 22-754, looked up)
chain: DDEVDVDGTVEEDLGKSREGSRTDDEVVQREEEAIQLDGLNASQIRELREKSEKFAFQAEVNRMMKLIINSLYKNKEIFLRELISNASDALDKIRLISLTDENALAGNEELTVKIKCDKEKNLLHVTDTGVGMTREELVKNLGTIAKSGTSEFLNKMTEAQEDGQSTSELIGQFGVGFYSAFLVADKVIVTSKHNNDTQHIWESDSNEFSVIADPRGNTLGRGTTITLVLKEEASDYLELDTIKNLVRKYSQFINFPIYVWSSKTETVEEPLEEDEAAKEEKEESDDEAAVEEEEEEKKPKTKKVEKTVWDWELMNDIKPIWQRPSKEVEEDEYKAFYKSFSKESDDPMAYIHFTAEGEVTFKSILFVPTSAPRGLFDEYGSKKSDYIKLYVRRVFITDDFHDMMPKYLNFVKGVVDSDDLPLNVSRETLQQHKLLKVIRKKLVRKTLDMIKKIADEKYNDTFWKEFGTNIKLGVIEDHSNRTRLAKLLRFQSSHHSTDITSLDQYVERMKEKQDKIYFMAGSSRKEAESSPFVERLLKKGYEVIYLTEPVDEYCIQALPEFDGKRFQNVAKEGVKFDESEKTKESREATEKEFEPLLNWMKDKALKDKIEKAVVSQRLTESPCALVASQYGWSGNMERIMKAQAYQTGKDISTNYYASQKKTFEINPRHPLIRDMLRRIKEDEDDKTVMDLAVVLFETATLRSGYLLPDTKAYGDRIERMLRLSLNIDPEAQ
notes: GRP94 (endoplasmin), mouse, residues 22-754, with the full pre-N domain and the charged linker region preserved; The N-terminal Strep-tag II is followed by a thrombin site; no thrombin cleavage is described; The C-terminal 6xHis tag was removed with TEV protease; also called mGRP94; mGrp94; source: E. coli BL21 (DE3), purified (Histrap HP, TEV cleavage, Hitrap Q HP, second Histrap HP …)
  binding result: binds
